{"source": "the nanobody polyreactivity screen of Harvey et al. (2022)", "data": [{"experiment": "yeast display, Sf9 membrane polyspecificity reagent, FACS + sequencing; frameworks hold sequencing errors", "method_in_brief": "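Genes from sorted yeast were amplified by colony PCR, read by MiSeq 2 × 250 sequencing and filtered on CDR length. These cells carried a synthetic nanobody library in Saccharomyces cerevisiae BJ5465 and were sorted by FACS into low and high (top ~1%) gates on anti-HA and streptavidin fluorescence. Polyreactivity is labelled according to the gate of origin.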", "values": [{"sequence": "QVQLVESGGGLVQAGGSLRLSCAASGRIFWYYAMGWYRQAPGKERELVAAITSGGSTNYADSVKGRFTISRDNEKNTVYLQMNSLKQEDTAVYYCNARWPYSGMNYWGQGTQVTVSS", "polyreactivity (PSR sort gate)": "high polyreactivity"}, {"sequence": "QDQHVESGGGLVQAGGSLRLSCAASGIIFDYNAMGWYRQAPGKERELVAAITSTDNTNYADSVKGRLTISRDNAKNTVYLQMNSLKPEDTAVYYCNSDYWLSVVYAMDYWGQGTQVTVSS", "polyreactivity (PSR sort gate)": "low polyreactivity"}, {"sequence": "QVQLVESGGGLVQAGGSLRVSCAASGSTCDVNAMGWYRQAPGKERELVAAMSWSDDATYYAYSVKGRFTISRDNAKNTVYVQMNSLKPEDTAVYYCAADGRYGWYYAVYNGEDYWGQGTQVTVSS", "polyreactivity (PSR sort gate)": "high polyreactivity"}, {"sequence": "QVQLVESGGGLVQAGGSLRLSCAASGSIFRDNVMGWYRQAPGKERELVAAITQRGGSTYYADSVKGRFTISRDNAKNTVYVQMNSLKPEDTAVYYCNARRYVLRYNRFYYWGQGTEVTVSS", "polyreactivity (PSR sort gate)": "high polyreactivity"}, {"sequence": "QVQLVESGGGLVQAGGSLRLSCAASGFIFQYYAMGWYRQAPGKERELVAAIRISGGSTYYADSVKGRFTSSRDNAKNTVYLQMNSLKPEDTAVYYCAARQIITKFYTSNGVSSYYWGQGTQVTVSS", "polyreactivity (PSR sort gate)": "high polyreactivity"}, {"sequence": "QVQIVESGGGLVQAGGSLPLSSAPSGSIFAPYAMGWYRQAPGKERELVAAINISGGTYYADSVKGRFTISRDNAKNTLYLQMNSLKPEDTAVYYCAARYLYGYYGFDYWGQGTQVTVSS", "polyreactivity (PSR sort gate)": "high polyreactivity"}, {"sequence": "QVQLVESGGGLVQAGGSLRLSCAASGRIFYRYAMGWYRQAPGKERELVARITSSGSTNYADSVKGRFTISRDNAKNTVYLQMNSLKPEDTAVYYCAARKLFIPKYYYWGQGTQVTVSS", "polyreactivity (PSR sort gate)": "high polyreactivity"}, {"sequence": "QVQLVESGGGLVQAGGSLRLSCAASGFTFKYYAMGWYRQAPGKERELVAAITSGGSTYADSVKGRFTISRDNAKITVYLQMNSLKPEDTAVYYCAASIDSGKWLGRRYDYWGQGTQVTVSS", "polyreactivity (PSR sort gate)": "low polyreactivity"}, {"sequence": "QVQLQESGGGPVQAGGSMRLSCAASGSISELRPMGWYREAPGKERELVAGISTGGSTNYADSVKGRFTISRDNAKKTVFLQMNSLKPEDTAVYYCAAASYGEGSYDYWGQGTQVTVRS", "polyreactivity (PSR sort gate)": "high polyreactivity"}, {"sequence": "QVQLVESGGGLVQAGGCLRLSCAASGSTFYGYAMGWYRQAPGKERELVAAISRIGSSTYYADSVKGRFTISRDNAKITVYLQMNSLKPEDTAVYYCAADTWKVFGVDYWGQGTQVSVSS", "polyreactivity (PSR sort gate)": "high polyreactivity"}, {"sequence": "QVQLVESGGGLVQAGGSLRLSCAASGRTFRENAMGWYRQAPGKERELVAAIRRSGGRTYYADSVKGRFTISRDNAKNTVYLQMNSLKPEDTAVYYCNAVADGYAFRRPYVTYYYWGQGTQVTVSS", "polyreactivity (PSR sort gate)": "low polyreactivity"}, {"sequence": "QVQLVESGGGLVQAGGSLRLSCAASGRIFYGYAMGWYRQAPGKERELVAAISKSGTRTYYADSVKGRFTISRDNAKNTVYLQMNSLKPEDTAVFYCNARGYPYDTYNEYYYWGQGTQVTVSS", "polyreactivity (PSR sort gate)": "high polyreactivity"}, {"sequence": "QVQLVESGGGLVQAGGSLRLSCAASGIFSRYAIGWYRQAPGKERELVAAISSGDSTNYADSVKGRFTISRDNAKNTVYLQMNSLKPEDTAVYYCATERSHLATGQGYYYVQTFYYWGQGTQVTVSS", "polyreactivity (PSR sort gate)": "low polyreactivity"}, {"sequence": "QVQLVESGGGLVQAGGSLRLSCAASGRTFVGNAMGWYRQAPGKERELVAAISGRGGSTKYADSVKGRFTISRDYAKNTVYLQMNSLKPEYTAVYYCNAPRNYYKNRAYEYWGQGTKVTVSS", "polyreactivity (PSR sort gate)": "high polyreactivity"}, {"sequence": "QVQLVESGGGLVQAGCSLRLICAASGIIFVGYAMGWYRQAPGKDRELVAGINSGGSTNYADSVKGRFTISRDNAKNTVYLQMNSLKPEDTAVYYCAAYPYYYYGYDYWGQGTQVTVSS", "polyreactivity (PSR sort gate)": "low polyreactivity"}, {"sequence": "QVQLVASGGGLVQARGSLRLSCAASGRTFTYYAMGWYRQAPGKESELVAAISDSGGSTYYADSVKGRFTISRDNAKNTVYVQMNSLKPEDTAVYYCAAYRYVGPWTDVGSPDYDDWGQGTQVTVSS", "polyreactivity (PSR sort gate)": "low polyreactivity"}, {"sequence": "QVQLVESGGGLVQAGGSLRLSCAASGRTLENYAMGWSRQAPGKERELVATINGRSGNTYYADSVKGRFTLSRDNAKNTVYLQMNSLKPEDTAVYYCNAYYEGYYTVGYDYWGQGTQVTVSS", "polyreactivity (PSR sort gate)": "high polyreactivity"}, {"sequence": "QVQLVESGGGLVQAGGSLRLSCAASGSTFDSYAMGWYRQAPGKEREFVAAISSCAGSSGRTSYADSVKGRFTISRDNATNTVYLQMNSLKPEDTAVYYCAKEYTLAKYREYDYWGQGTQVTVSS", "polyreactivity (PSR sort gate)": "low polyreactivity"}, {"sequence": "QVQLVESGGGLVQARGSLRLSCAASGRIFRYYAMGSYRQAPGKERELVASITSGARTSYADSVKGRFTISRDIAKNTVYLQMNSLKPEDTAVYYCAAGGRARTYYYWGQGTQVTVSS", "polyreactivity (PSR sort gate)": "high polyreactivity"}, {"sequence": "QVQLVESGGGLVQAGGSLRLSCAASGSILRPNVMGWYRQAPGKERELVARISSRGVNTYYADSVKGRFTLSRDNAKNTVYLQMHSLKPEDTAVFYCNARRAQYYWNRSAKYDYWGQGTQVTVSS", "polyreactivity (PSR sort gate)": "high polyreactivity"}, {"sequence": "QFQLVESGGGFVQAGGSLRLSCAASGSIFLYNDMGWYRQAPGKERELVPAITSDGSTNYADSVKGRFTISRDNAKNTFYLQMNSLKPEDTAVYYCAADALWFYLNWYYGGTAYGYWGQGTQVTVSS", "polyreactivity (PSR sort gate)": "low polyreactivity"}, {"sequence": "QVQLVESGGGLVQAGGSLRLSCAASGRTLLANAMGWYRQAPGKARELVAAITWTGGRTNYADSVKGRFTISRDNAKNTVYLQMNSLKPEDTAVYYCAADIFYEQVVGGTDVGYHDFDYWGQGTQVTVSS", "polyreactivity (PSR sort gate)": "low polyreactivity"}, {"sequence": "QVQLVESGGGLLQAGGSLRLSFAASGRIYWNTMGWYRQAPGKERELVASISTGGGRTYYADSVKGRFTISRDNAKNTVYLQMNSLKPEDTAVYYCNADFISTRPPKATDEDYWGQGTQVTVSS", "polyreactivity (PSR sort gate)": "high polyreactivity"}, {"sequence": "QVQLQESGGGLVQAGGSLRLSCAASGSLFLFYTMGWYRQAPVIEREFVAGITLGTTTYNADSVKGRFTISRDNVKNTVFLQMNSLKPEDTAVYYCAVAVGHYTEFWYWGQGTQVTMSS", "polyreactivity (PSR sort gate)": "high polyreactivity"}, {"sequence": "QVQLVESCGGLLQAGGSLPLSCPASGSISSYYAMGWYRQAPGKERELVASITSGASTNYADSVKGRFTISRDNAKNTVYLQMNSLKPEDTAVYYCAAYVVTYYYGTGYYSYDYWGQGSQVTVSS", "polyreactivity (PSR sort gate)": "low polyreactivity"}, {"sequence": "QVKLVESGGGLVQAGGSLRLSCAASGSIFGGNAMGWYRQAPGKEREFVARITKRGGSTDYADSVKGRFTISRDNAKNTVYLQMNSLKPEDTAVYYCATGWTSKVHYRYGYWGQGTQVTVSS", "polyreactivity (PSR sort gate)": "high polyreactivity"}, {"sequence": "QVQLVESGGGLVQAGGSLRLSCAASGSIYGYVKGWYRPAPGKERELVAAIRRSGGSTYYADSVKGRFTISRDNAKNTVYLQMNSLKPEDTAVYYCAARTYGTDRYYYWGQGTQVTVSS", "polyreactivity (PSR sort gate)": "high polyreactivity"}, {"sequence": "QVQLVESGGGLVQAGGSLRLSCAASGNIFVLNPMGWYRQATCKETELVAAISRSGVRTYYADSVKGRFTISRDNAKNTVYLQMNSLKPEDTAVYYCAAVYKRLQPYGYWGQGTQETVSS", "polyreactivity (PSR sort gate)": "high polyreactivity"}, {"sequence": "QVQLVESGGGLVQAGGSLRLSCAASGFTFGTYAMGWYRQAPGKERELVAAITSSGTITYYADSVKGRFTISRDNAKNTVYLQMNSLKPEDTAVYYCAARRFRRLRWGQGTQVTVSS", "polyreactivity (PSR sort gate)": "low polyreactivity"}, {"sequence": "QVHLVESGGGLVQAGGSLRLSCAASGSISGLYAMGWYRQAPGKETELVAAISFSAGSTYYADSVKGRFTISRDNAKNTVYFQMNSLKPEDTAVYYCAADGQYGGVPNTSEWTFDYWGQGTQVTVSS", "polyreactivity (PSR sort gate)": "low polyreactivity"}, {"sequence": "QVQLVESGGGLVQAGGSLRLSCAASGSTFAYYAMGWYRQAPGKERELVAAITWSGGSTSYADSVKGRFTISRDNAKNTVYLQMNSLKPEDTGVYYCNADDKPLDWREYNYWGQGTQVTVSS", "polyreactivity (PSR sort gate)": "low polyreactivity"}, {"sequence": "QVQLVESGGGLVQAGGSLRLSCAASGSTFLSNAMGWYRQAPGKERELVAGITSGTSTYYADSVKGRFTISRDNAKYTVYLQMNSLKPEDTAVYYCNADDAEVLYQYVEYDYWGQGTQVTVSS", "polyreactivity (PSR sort gate)": "low polyreactivity"}, {"sequence": "QVQLVESGGGLVQAGGSLRLSCAASGITSSLNAMGWYRQAPGKERELVAAISWRGGSTYYADSVKGRFTISRDNAKNTVYLQMNSLKPEDTAVYYCAARSSYRKMDYWGQGTQVTVSS", "polyreactivity (PSR sort gate)": "high polyreactivity"}, {"sequence": "QVQLVESGGGLVQAGGSLRLSCAASGSTFYSYAIGWYRQAPGKERELVADISYSDGSTYYADSVKGRFTISRDYAKNTVYLQMNSLKPEDTAVYYCDAYALSYFKIMDYWGQGTQVTVSS", "polyreactivity (PSR sort gate)": "low polyreactivity"}, {"sequence": "QVQLVESGGGLVQAGGSLRLSCAASGGIFYHNAMGWYRQAPGKERELVAAISGRGGRTYYADSVKGRFTISRDNAKNTVYLQMNSLKPEDTAVYYCAAGGQARHDYWGQGTQVTVSS", "polyreactivity (PSR sort gate)": "low polyreactivity"}, {"sequence": "QVQHVESGGGLVQAGGSLRLSCAASGIIFRENALGWDRQAPGKERELVAGISSGGNTNYADSGKGRFTISRDNAKNPVYLQMNSLNPEDTAVYYCNTDWYLPRYVLLGYFSGTEDYWGQGTQVTLSS", "polyreactivity (PSR sort gate)": "low polyreactivity"}, {"sequence": "QVQLVESGGGLVQAGGSLRLSCAASGRIFKNNAMGWYRQAPGKEREFVAAISSIGGRTYYADSVKGRFTISRDNAKHTVYLQMNSLKPEDTAVYYCAARGYTGGLWYDYWGQRTQVTVSS", "polyreactivity (PSR sort gate)": "high polyreactivity"}, {"sequence": "QVQLVESGGGLVQARGSLRLSCAASGITFGRNTMGWYRQAPGKERELVAAIDSGGNTYADSVKGRFTISRDNAKNTVYLQMNSLKPDDTAVYYCAVDGGEFSSYGYWGQGTQVTVSS", "polyreactivity (PSR sort gate)": "low polyreactivity"}, {"sequence": "QVQLVESGGGLVQAGGSLRLSCAASAGIFVVYGMGWYRQAPGKERELVAAISWRGGSTYYADSVKGRFTISRDNAKNTVYLQMNSLKPEDTAVYYCAADQYYGGYDYWGQGTQVTVSS", "polyreactivity (PSR sort gate)": "low polyreactivity"}, {"sequence": "QVQLVESGGGLVQAGGSLRLSCAASGSIFFPYAMGWYRQAPGKERELVAAISYSGTSTYYADSVKGRFTISRDNAKNTVYLQMNSLKPEDTAVYYCAAYSRYYASYDYWGQGTQVTVSS", "polyreactivity (PSR sort gate)": "high polyreactivity"}, {"sequence": "QVHLVESGGGLVQAGGSLRLSCAASGRIFKKYAMGWYRQAPGKESELVATISSGGSTYYADSVKGRFTISRDNAKNTVYLQMNSLNPEDTAVYYCARREYVRRDYFVTTYDYWGQGTQVTVSS", "polyreactivity (PSR sort gate)": "low polyreactivity"}, {"sequence": "QVQLVESRGGLVQARGSLRLSCAASGRTFYPYAMGWYSPAPGKERELVATITGSGTTTYYADSVKGRFTLSRDNGNNTVYLQMNRRKPEDTAVYYSAADVWEVVTPYGTIDDDYWRQGTQVTVSS", "polyreactivity (PSR sort gate)": "high polyreactivity"}, {"sequence": "QVQLVESGGGLVQAGGSLRLSCAASGRTFSVYAMGWYRQAPGKERELVARIRWSSGITYYADSVKGRFTISRDNAKNTVYLQMNSLKPEDTAVYYCAARYYTSATMDYWGQGTQVTVSS", "polyreactivity (PSR sort gate)": "high polyreactivity"}]}]}
